Reference: the RNAGym collection of RNA variant scans (doi:10.7554/elife.80360)

B1: HDV Ribozyme (parent)
chain: GGCCGGCAUGGUCCCAGCCUCCUCGCUGGCGCCGGCUGGGCAACAUUCCGAGGGGACCGUCCCCUCGGUAAUGGCGAAUGGGACCCA

Variants of: B1
Assay: self-cleavage, relative activity (ratio to wild type); higher = more cleavage; co-transcriptional

Variant	self-cleavage
GGCCGGCAUGGUCCCAGCCUCCUCGCUGGCGCCUGCUGGGCAAUAUUCCGAGGGGACCGUCCCCUCGGUAAUGGCGAAUGGGACCCA	0.0241
GGCCGGCUUGGUCCCAGCCUUCUCGCUGGCGCCGGCUGGGCAACAUUCCGAGGGGACCGUCCCCUCGGUAAUGGCGAAUGGGACCCA	0.147
GGCCGGCAUGGUCCCAGCCUCCUCGCUGGCGCCGUCUGGGCAACAUUCCGAGGGGACCGUCCCCUCGGUAAUGGCGAAUGGGAGCCA	0.185
CGCCGGCAUGGUCCCAGCCUCCUCGCUGCCGCCGGCUGGGCAACAUUCCGAGGGGACCGUCCCCUCGGUAAUGGCGAAUGGGACCCA	0.0665
GGCCGGCAUGGUCCCAGCCUCCUCGCUGGCGCCGGCUGGUCAACAUUCCGAGGGGACCGUCCCCUCGGCAAUGGCGAAUGGGACCCA	0.91
GGCCAGCAUGGUGCCAGCCUCCUCGCUGGCGCCGGCUGGGCAACAUUCCGAGGGGACCGUCCCCUCGGUAAUGGCGAAUGGGACCCA	0
GGCCGGCAUGGUCCCAGCCUCCUCGCUGGCGCCGGCUGGGCAACAUUCCGAGGGGACCCUCCCAUCGGUAAUGGCGAAUGGGACCCA	0.946
GGCCGGCAUGGUCCCAGCCUCCUCGCUGGCGCCGGCUGGGCAACAUUCCGUGGGGACCGUCGCCUCGGUAAUGGCGAAUGGGACCCA	0.131
GGCCGGCAUGGUCCCAGCCUCCUCGCUGGCGCCGGCUGGGCAACAUUCCGAGGGGACCGUCCCCGCGGUAAUGGCGAAUGGGACCAA	0.988
GGCCGGCAUGUUCCCAGCCUCCUCGCUGGCGCCGGCUGGGCAACAUUCCGAGGGCACCGUCCCCUCGGUAAUGGCGAAUGGGACCCA	0.35
GGCCGGCAUGGUCCCAGCCUCAUCGCUGGCGCCGGCUGGGCAACACUCCGAGGGGACCGUCCCCUCGGUAAUGGCGAAUGGGACCCA	0.0692
GGCCGGCAUGUUCCCAGCCUCCUCGCUGGCGCCGGCUGGGCAACAUUCCGAGGGGACCGUGCCCUCGGUAAUGGCGAAUGGGACCCA	0.315
GGCCGGCAUGGUCCCAGCCUCCUCGCUGGCGCCGUCUGGGCAACAUUCCGAGGGGACCGUCCCCUCGGGAAUGGCGAAUGGGACCCA	0.302
GGCCAGCAUGGUCCCAGCCUCCUCGCUGGCGCCGGCUGGGCAACAUUCCGAGGGGACCGUCCCCUCGGUAAUGGUGAAUGGGACCCA	0.0346
GGCGGGCAUGGUCCCAGCCUCCUCGCUGGCGCCGGCUGGGCAACAUUCCGAGGGGAACGUCCCCUCGGUAAUGGCGAAUGGGACCCA	0.374
GGCCGGCAUAGUCCCAGCCUCCUCGCUGGCGCCGGCUGGGCAACAUCCCGAGGGGACCGUCCCCUCGGUAAUGGCGAAUGGGACCCA	0.554
GGCCGGCAUGCUCCCAGCCUCCUCGCUGGCGCUGGCUGGGCAACAUUCCGAGGGGACCGUCCCCUCGGUAAUGGCGAAUGGGACCCA	0.256
GGCCGGCAUGGUCCCAGCCUCCUCGCUGGCGCCGGUUGGGCAACAUUCCGAGGGGACCGCCCCCUCGGUAAUGGCGAAUGGGACCCA	0.959
GGCCGGCCUGGUCCCAGCCUCCUCGCUGGCGCCGGCUGGGCAACAUUCCGAGGGGACCGUCCCUUCGGUAAUGGCGAAUGGGACCCA	0.923
GACCGGCAUGGUCCAAGCCUCCUCGCUGGCGCCGGCUGGGCAACAUUCCGAGGGGACCGUCCCCUCGGUAAUGGCGAAUGGGACCCA	0.0382
GGCCGUCAUGGUCCCAGCCUCCUCGCUGGCGCCGGCUGCGCAACAUUCCGAGGGGACCGUCCCCUCGGUAAUGGCGAAUGGGACCCA	0.151
GGCCGGCAUGGUCCCAGCCUCCUCGAUGGCGCCGGCUGGGCAACAUUCCGAGGGGACCGUCCCCUCGGUAAUGGCGAAAGGGACCCA	0.997

Variant	self-cleavage
GGCCGGCAUGGUCCCAGCCUCCUCGCUGCCGCCGGCUGGGCAACAUUCCGAGAGGACCGUCCCCUCGGUAAUGGCGAAUGGGACCCA	0.133
GGCCGGCAUGGUCCCAGCCUCCUCGCUGGCGCGGGAUGGGCAACAUUCCGAGGGGACCGUCCCCUCGGUAAUGGCGAAUGGGACCCA	0.107
GGCCGGCAUGGUGCCAGCCUCCUCGCUGGCGCCGGCUGGGCAACAUUCCGAGGGGACCGUCCCCUCGGUAAUGGCGAAUGGGACGCA	0.0692
GGCCGGCAUGCUCCCAGCCUCCUCGCUGGCGCCGGCUGGGCAACAUUCCGAGGGGACCGUCCCCUCGCUAAUGGCGAAUGGGACCCA	0.0831
GGCCGGCAUGGUCCCAGCCUCCUAGCUGGCGCCGGCUGGGCAACAUUCCGAGGGGACCGUCCCCGCGGUAAUGGCGAAUGGGACCCA	0.511
GGCCGGCAUGGUCCCAGCCUCCUCGCUGGCGCCGGCUGGGCAACAUUCCGAGGGGACCGUCCACUCGGUAAUGGCUAAUGGGACCCA	1.15
GGCCGGCAUGGUCCCAGCCUCCUCGCUGGCGCCGGCUGGGCAACAUUCCGAGGGGACCGUCCCCUUGGUAAUCGCGAAUGGGACCCA	0.528
GGGCGGCAUGGUCCCAGCCUCCUCGCUGGCGCCGGCUGGGCAACAUACCGAGGGGACCGUCCCCUCGGUAAUGGCGAAUGGGACCCA	0.594
GGCCGGCAUGGUCCCAGCCUCCUCGCUGGCGCCGGCUGGGCACCAUUCCUAGGGGACCGUCCCCUCGGUAAUGGCGAAUGGGACCCA	0.432
GGCCGGCAUGGUCCCGGCCUCCUCGCUGGCGCCGGCUGGGCAACAUUCCGAGGGGACCGUCCCCUCGGUAAUGGCGAAUGGGACCCA	1.07
GGCCGGCAUGGUCCCAGCCUCCUCGCUGGCGCCGGCUGGGCAACAUUCCGAGGGGACCGUCCACUCGGUAUUGGCGAAUGGGACCCA	1.11
GGCCGGCAUGGUCCCAGCCUCCUCGCUCGCGCCGGCUGGGCAACAUUCCGAGGGGACCGCCCCCUCGGUAAUGGCGAAUGGGACCCA	0.0852
GGCCGGCGUGGUCCCAGCCUCCUCGCUGGCGCCGGCUGGGCAACAUUCCGAGGCGACCGUCCCCUCGGUAAUGGCGAAUGGGACCCA	1.07
GGCCGGCAUGGUCCCAGCCUCCUCGCUGGCGCCGGCUGGGCAACAUUCCGAGGGGACCCUCCCCUCGGUAAUGGCAAAUGGGACCCA	0.767
GGCCGCCAUGGUCCCAGCCUCCUCGCUGGCGCCGGCUGGGCAACAUUCCGAGGGGAACGUCCCCUCGGUAAUGGCGAAUGGGACCCA	0.346
GGCCGGCAUGGUCCCAGCCUCCUCGCUGGCGCCGGCUGGGCAACAUUCCGAGAGGACCGUCCGCUCGGUAAUGGCGAAUGGGACCCA	1.01
GGCCGGCAUGGUCCCAGCCUCCUCGCUGGCGCCGGCUGGGAAACAUUCCGCGGGGACCGUCCCCUCGGUAAUGGCGAAUGGGACCCA	0.875
GGCCGGCAUGGUACCAGCCUCCUCGCUGGCGCCGGCUGGGCAACAUUCCGAGGGGACCGUCCCCUAGGUAAUGGCGAAUGGGACCCA	0.125
GGCCGGCAUGGUCCCAGCCUCCUCGCUGGCGCCGGCUGGGCGACAUUCCGAGGGGACCGUCCCCUCGGUAAUGGCGAAUGGGCCCCA	0.119
GGCCGGCAUGGUCCCAGCCUCCUCGCUGGCGCCGGCUGGGCAACUUUCCGAGGGGACCGUCACCUCGGUAAUGGCGAAUGGGACCCA	0.791
GGCCGGCAUGGUCCCAGCCUCCUCGCUAGCGACGGCUGGGCAACAUUCCGAGGGGACCGUCCCCUCGGUAAUGGCGAAUGGGACCCA	0.234
GGCCGGCAUGGUCCCAGCCUCCUCGCUGGCGCCGGCUGGGCAACAUUCCGAGGGGACCGUCCCCUCGGUAAUGGCGAAUGGGACCUC	0.926

Variant	self-cleavage
GGCCGGCAUGGUCCCAUCCUCCUCGCUGGCGCCGGCUGGGCAACAUUCCGAGGGGACCGACCCCUCGGUAAUGGCGAAUGGGACCCA	0.494
GGCCGGCAUGGUCCCAGCCUCCUCGCUGGCGCCGGCUGGGUAACAUUCCGAGGGGACCGUCCCCUCGGUAAUGGCGCAUGGGACCCA	0.341
GGCCGGCAUGGUCCCAGCCUCCUCGCUGGCGCCUGCUGGGCAACAUUCCGAGGGGACCGACCCCUCGGUAAUGGCGAAUGGGACCCA	0.0817
GGCCGGCAUGGUCCCAGCGUCCUCGCUGGCGCCGGCUGGGCAACAUUCCGAGGGGACCGUCCCCUCGGUAAUGGCGAAUGGAACCCA	0.102
GGCCGGCAUGGUCCCAGCCUCCUCGCUGGCGCCGGCUGGGCAACAUUCCGAGGGGACUGUCCCCUCGGUAAUGGCGAAUGGAACCCA	0.906
GGCCGGCAUGGUCCCAGCCUCCUCGUUGGCGCCGGCUGGGCAACAUUCCGAGGGGACCGUCCCCACGGUAAUGGCGAAUGGGACCCA	0.769
GGCCGGCAUGGUCCCAGCCUCCUCGCUGGCGCCGGGUGGGCAACAUUACGAGGGGACCGUCCCCUCGGUAAUGGCGAAUGGGACCCA	0.272
GGCCAGCAUGGUCCCAGCCUCCUCGCUGGCGCCGGCUGGGGAACAUUCCGAGGGGACCGUCCCCUCGGUAAUGGCGAAUGGGACCCA	0
GGCCGGCAUGGUCUCAGCCUCCUCGCUGGCGCCGGCUGGGCAACAUUCCGAGGGGACCGUCCCCUCGGUAACGGCGAAUGGGACCCA	0.532
GGCCGGCAUGGUCCCAGCAUCCUCGCUGGCGCCGGCUGGGCAACAUUCCGAGGGGACCGUCCCCUCGGUAAUGGCGUAUGGGACCCA	0.145
GGCCGGCAUGGUCCCAGCCUCCUCGCUGGCGCCGGCUGGGCAACAUUCCGAGGGGACCGUACCCUCGGUAAAGGCGAAUGGGACCCA	0.745
GGCCGGAAUGGUCCCAGCCUCCUCGCUGGCGCCGGCUGGGCAACAUUCCGAGGGGACCGUCCCCUCGGUAAGGGCGAAUGGGACCCA	0
GGCCGGCAUUGUCCCAGCCUCCUCGCUGGCGCCGGCUGGGCAACAUUCCGAGGGGACCGUCCCCUCAGUAAUGGCGAAUGGGACCCA	0.611
GGGCGGCAUGGUCCCAGCCUCCUCGCUGGCCCCGGCUGGGCAACAUUCCGAGGGGACCGUCCCCUCGGUAAUGGCGAAUGGGACCCA	0.0455
GGCCGGCAUGGUCCCAGCCUCCUCGCUGGCGCCGACUGGGCAACAUUCCGUGGGGACCGUCCCCUCGGUAAUGGCGAAUGGGACCCA	0.496
GGCCGGCAUGGUCCCAGCCUCCUCGCUGGCGCCGGCUGGGCAACAUUCUGAGGGGACCGUCCCCUCGGUUAUGGCGAAUGGGACCCA	0.877
GGCCGGCAUGGUCCCAGCCUCCUCGCUGGCGCCGGCUGGGCAAAAUUCCGAGGGGACCGUCCCCACGGUAAUGGCGAAUGGGACCCA	0.95
GGCCGGCAUGGUCCCAGCCUCCUCGCUGGCGCCGGCUGGGCAACAUUUCGAAGGGACCGUCCCCUCGGUAAUGGCGAAUGGGACCCA	0.931
GGCCGGCAUGGUCCCAGCCUCCUCCCUGGCGCCGGCUGGGCAACAUUACGAGGGGACCGUCCCCUCGGUAAUGGCGAAUGGGACCCA	0.0415
GGCCGGCAUGGUCCCAGCCUCCUCGCUGGCGCCGGCUGGGCAACAUUCCGAGGGGACCGUCCCCUGUGUAAUGGCGAAUGGGACCCA	0.831
